{
  "source": "patent US5650301A",
  "about": "“Hirudin HV2 having a SN7LYS substitution, method of making, and method of use” (Transgene S.A., priority 1986, dated 1997)",
  "molecules": {"B1": {"name": "ILE THR TYR THRASP CYS THR GLU SER GLY GLN ASN LEU CYS LEU CYS GLU GLY SER ASN VAL CYS GLY LYS GLY ASN LYS CYS ILE LEU GLY SER ASN GLY LYS GLY ASN GLN CYS VAL THR GLY GLU GLY THR PRO LYS PRO GLU SER … (protein)", "chain": "ITYTDCTESGQNLCLCEGSNVCGKGNKCILGSNGKGNQCVTGEGTPKPESHNNGDFEEIPEEYLQ", "modifications": "printed: ILE THR TYR THRASP CYS THR GLU SER GLY GLN ASN LEU CYS LEU CYS GLU GLY SER ASN VAL CYS GLY LYS GLY ASN LYS CYS ILE LEU GLY SER ASN GLY LYS GLY ASN GLN CYS VAL THR GLY GLU GLY THR PRO LYS PRO GLU SER HIS ASN ASN GLY ASP PHE GLU GLU ILE PRO GLU GLU TYR LEU GLN", "notes": "recombinant hirudin HV2 variant in which the Asn^47 is replaced by a Lys, produced in yeast"}},
  "key": {"[1]": {"system": "residual thrombin in the rat and rabbit plasma", "test": "Anti-IIa effect in plasma, residual thrombin by chromogenic substrate", "format": "biochemical", "conditions": "above 60 ATU/ml, compared with rHV2", "protocol": "(§1) b) The anticoagulant activity of the two hirudins is compared in vitro in rat and rabbit plasma in terms of prolongation of the thrombin time, and the anti-IIa effect is measured chromogenically."}, "[2]": {"target": "T1, thrombin (Homo sapiens, UniProt P00734)", "test": "Inhibitory effect of crude yeast culture supernatants on thrombin activity (chromozyme TH)", "format": "biochemical", "conditions": "yeast culture supernatants after 48 h, compared with native HV2 (FIG. 2)", "protocol": "20 ml of culture (YNBG+0.5% casamino acids) at OD660 0.02 were seeded with each strain. After 48 h of agitation at 30° C. the cultures were centrifuged (5000 rpm, 5 min) and the supernatants assayed. A culture of TGY1sp4 pTG881 (plasmid not carrying the coding sequence for HV2) was used as a control.\nThe activity of the crude supernatants is measured in terms of their inhibitory effect with respect to thrombin activity (proteolytic activity on a synthetic substrate, chromozyme TH--Boehringer Mannheim)."}, "[3]": {"target": "T1, thrombin", "test": "Specific antithrombin activity, inhibition of proteolytic activity of thrombin on chromozyme", "format": "biochemical", "set-up": "The specific antithrombin activity (human and bovine thrombin) of the two recombinant hirudins", "protocol": "(§2) a) The specific antithrombin activity (human and bovine thrombin) of the two recombinant hirudins in physiological saline is determined on the basis of the inhibition of the proteolytic activity of thrombin on chromozyme.\n(§3) a) For a preparation of stock solution at a concentration of 1 mg/ml, the specific antithrombin activity of the two variants of hirudin with respect to human and bovine thrombins is expressed in Table 1 below: […]"}, "[4]": {"system": "rat and rabbit plasma", "test": "Anticoagulant activity in vitro in plasma, prolongation of the thrombin time", "conditions": "higher concentrations, compared with rHV2", "protocol": "as §1"}, "[5]": {"system": "thrombosis by blood stasis in rabbits", "test": "Model of thrombosis by blood stasis in rabbits", "format": "in vivo", "conditions": "RABBIT i.v. perfusion", "protocol": "(§4) e) The antithrombotic activity of the two variants of hirudin and of standard heparin is studied in Wessler's rabbit and rat model, with thromboplastin as thrombogenic agent, and in the model of stasis in rabbits (Fareed). The compounds are administered by continuous perfusion in rabbits and by i.v. bolus in rats.\nMale New Zealand rabbits weighing 2.5 to 3 kg were used in this study. After intravenous anesthesia with pentobarbital sodium (30 mg/kg), the left carotid was cannulated and the two jugular veins were isolated; two slack ligatures were placed on each of them, at a distance of 2.5 cm from one another. The rabbits then received either physiological saline or solutions of hirudin or heparin in continuous perfusion for 30 minutes, at a flow rate of 2.5 ml/hour. Two minutes before the end of perfusion, arterial blood samples were drawn in order to determine the plasma levels of the anticoagulants. At the same time as the perfusion was stopped, stasis was established by tightening the four ligatures (first the proximal and then the distal). The stasis was maintained for 2 hours, the jugulars were then opened and the thrombi extracted, rinsed in physiological saline and weighed after blotting with filter paper."}, "[6]": {"system": "venous thrombosis in rabbits", "test": "Wessler's model in rabbits (thromboplastin as thrombogenic agent)", "format": "in vivo, rabbit", "protocol": "as §4\nMale New Zealand rabbits weighing 2.5 to 3 kg were used in this study. After anesthesia by intravenous injection of pentobarbital sodium (30 mg/kg), the left carotid was cannulated and the two jugular veins were isolated; two slack ligatures were placed on each of them at a distance of 2.5 cm from one another. The rabbits then received either physiological saline or solutions of hirudin or heparin in continuous perfusion for 30 minutes at a flow rate of 2.5 ml/hour. Two minutes before the end of the perfusion, arterial blood samples were drawn in order to determine the plasma levels of the anti-coagulants. One minute before the end of the perfusion, human thromboplastin (Manchester Comparative Reagents Ltd), standardized according to M. Buchanan's procedure, was injected at a dose of 600 ug/kg during exactly 30 seconds into the aorta via the carotid. Thirty seconds later the perfusion was stopped and blood stasis was produced by tightening the ligatures on the two venous segments for 15 minutes. […]"}, "[7]": {"system": "hemorrhage in rabbits", "conditions": "rabbit, in vivo"}, "[8]": {"system": "bleeding time in rats", "conditions": "rat, in vivo"}, "[9]": {"target": "T2, bovine thrombin (Bos taurus, UniProt P00735)", "T2 construct": "The specific antithrombin activity (human and bovine thrombin) of the two recombinant hirudins", "test": "Specific antithrombin activity, inhibition of proteolytic activity of thrombin on chromozyme", "format": "biochemical", "conditions": "stock solution 1 mg/ml in physiological saline", "protocol": "as §2, §3"}, "[10]": {"target": "T1, thrombin", "test": "Kinetics of inhibition of human thrombin by purified hirudin variants (chromozyme PL)", "format": "biochemical", "set-up": "The specific antithrombin activity (human and bovine thrombin) of the two recombinant hirudins", "from_the_text": "To study the kinetics of inhibition of thrombin by these variants, the theory of high affinity inhibitors, as described in J. W. WILLIAMS and J. F. MORRISON Methods in Enzymology 63 pp. 437-467, 1979, is used, since hirudin is a reversible inhibitor of thrombin.\nThe variants of hirudin used are purified to 95% and the Sigma pure human thrombin has a percentage activity, measured by titration of the active site, which is above 92%. The concentration of human thrombin is the same for all the measurements, namely 5.5×10^-9 M. The medium is an 0.05M sodium PIPES buffer, pH 7.9, 0.18M KCl and 0.1% PEG at 37° C. The thrombin substrate is Boehringer chromozyme PL. A preincubation time of 2 minutes is observed for the thrombin and hirudin, and the reaction is then initiated with the substrate.\nThe following table summarizes the values determined experimentally for the quantity of hirudin required for a 95% inhibition of the same quantity of human thrombin (5.5×10^-9 M)."}, "[11]": {"system": "venous thrombosis in rats", "test": "Wessler's model in rats", "format": "in vivo", "conditions": "RAT i.v. bolus, -5 min 40 s before stasis", "protocol": "as §4\nMale (CD-COBS) Sprague-Dawley rats weighing approximately 300 g were used. […] Two flexible ligatures were positioned 0.7 cm apart.\nThe test products, diluted in physiological saline, were injected in an i.v. bolus at 1 ml/kg, 5 min 40 s or 1 min (heparin) before the production of venous stasis. Forty seconds before this stasis, a thrombogenic agent (rabbit thromboplastin, E. Dade) was injected at a dose of 25 mg/ml/kg into the vein of the penis in the space of 30 seconds, measured very exactly. Ten seconds after the end of the injection, stasis was established by tightening the two ligatures, first the proximal and then the distal. The stasis was maintained for 10 minutes, and the thrombus was then removed, immersed in a 0.38% strength citrate solution, dried with general-purpose absorbent paper and weighed on the following day after drying for one hour at […]."}},
  "data": [
    {"molecule": "B1", "values": [
      {"measurement": "further neutralizing the traces of residual thrombin", "setting": "[1]", "value": "more effective"},
      {"measurement": "inhibitory effect of crude supernatants with respect to thrombin activity", "setting": "[2]", "value": "at least equal to that of native HV2"},
      {"measurement": "specific antithrombin activity, results expected for human thrombin", "setting": "[3]; expected values", "value": "16,000 ATU/mg"},
      {"measurement": "specific antithrombin activity for human thrombin", "setting": "[3]; stock solution 1 mg/ml in physiological saline", "value": "19,000 ATU/mg"},
      {"measurement": "specific antithrombin activity", "setting": "[3]; summary value of the text, identical for the human and bovine thrombins", "value": "~19,000 ATU/mg"},
      {"measurement": "anticoagulant activity determined in terms of the thrombin time", "setting": "[4]", "value": "markedly superior"},
      {"measurement": "Antithrombotic effects, STASIS", "setting": "[5]", "value": 47, "unit": "µg/kg/h"},
      {"measurement": "Antithrombotic effects, WESSLER", "setting": "[6]; RABBIT i.v. perfusion", "value": 20, "unit": "µg/kg/h"},
      {"measurement": "antithrombotic activity", "setting": "[6]; continuous perfusion in rabbits, compared with rHV2 and heparin", "value": "superior to those of rHV2 and heparin"},
      {"measurement": "risk of hemorrhage", "setting": "[7]", "value": "less than those in animals treated with standard heparin"},
      {"measurement": "prolongation of the bleeding time", "setting": "[8]", "value": "less than those in animals treated with standard heparin"},
      {"measurement": "specific antithrombin activity for bovine thrombin", "setting": "[9]", "value": "19,200 ATU/mg"},
      {"measurement": "Quantity for attaining 95% inhibition of thrombin", "setting": "[10]; human thrombin 5.5×10^-9 M, PIPES pH 7.9, 37° C., chromozyme PL, 2 min preincubation", "value": "7.6 10^-9 M"},
      {"measurement": "fold less hirudin than HV2 required for inhibiting the same quantity of human thrombin", "setting": "[10]; relative to hirudin HV2", "value": "approximately 4 fold"},
      {"measurement": "Antithrombotic effects, WESSLER", "setting": "[11]", "value": 160, "unit": "µg/kg"}
    ]}
  ]
}
